Positions count from the first letter of the chain named. Numbers in names are those of the source.
Columns and labels:
Spy_(D26K R61D R62D) = molecular target: T1, Spy_(D26K R61D R62D) (UniProt P77754 24-161, D26K | R61D | R62D); test: BLI; Octet RED96; client biotinylated and loaded on streptavidin sensors; Spy or Spy variant in solution at 0.25, 0.5, 1, 1.5 and 2 μM; 40 mM HEPES, 150 mM NaCl, pH 7.5; Kd calculated as koff/kon; conditions: both partners purified
T1 construct: source: E. coli BL21 (DE3), purified (Ni-NTA, cation exchange, SEC); not shown: His6, N-terminal, cleaved; SUMO, N-terminal, cleaved
T1 sequence (looked up): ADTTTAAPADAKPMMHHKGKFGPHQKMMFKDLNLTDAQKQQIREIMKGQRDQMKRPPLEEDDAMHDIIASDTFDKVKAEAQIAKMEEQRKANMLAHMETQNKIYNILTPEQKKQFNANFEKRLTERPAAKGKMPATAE
Procedure, shortened: (§1)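 Association was recorded with an Octet RED96 as streptavidin sensors carrying client proteins, biotinylated with EZ-link NHS-biotin at a 1:1 molar ratio, sat in 40 mM HEPES, 150 mM NaCl, pH 7.5 with 0.25 to 2 μM of the analyte protein (0.25, 0.5, 1, 1.5 and 2 μM). Dissociation followed after transfer to analyte-free buffer. Both wavelength-shift phases were fitted in SigmaPlot 12.0 to obtain koff and the observed association rate, whose dependence on analyte concentration yielded kon, with Kd defined as koff divided by kon.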

Spy_(K121D R122D) = molecular target: T2, Spy_(K121D R122D) (UniProt P77754 24-161, K121D | R122D); test: as above; conditions: both partners purified
T2 construct: source: E. coli BL21 (DE3), purified (Ni-NTA, cation exchange, SEC); not shown: His6, N-terminal, cleaved; SUMO, N-terminal, cleaved
T2 sequence (looked up): T1 sequence (looked up) with K26D, D61R, D62R, K121D, R122D
Procedure, shortened: as §1

B1: Im7 H40W L53A I54A (natural protein)
chain: MELKNSISDYTEAEFVQLLKEIEKENVAATDDVLDVLLEWFVKITEHPDGTDAAYYPSDNRDDSPEGIVKEIKEWRAANGKPGFKQG
modifications: biotin (EZ-link NHS-biotin, 1:1 molar ratio of biotin to protein)
notes: Im7 (colicin E7 immunity protein) with H40W L53A I54A; Spy was made with an N-terminal His6-SUMO tag that was cleaved; also called Im7AAW; partially folded client; source: purified by a similar procedure to Spy
Spy_(D26K R61D R62D)
  koff: 0.475 s⁻¹
Spy_(K121D R122D)
  koff: 0.46 s⁻¹
